Reference: the Human Domainome abundance scans (Beltran et al. 2025)
± gives the uncertainty stated by the source.

B1: Steroid hormone receptor ERR2, residues 100 to 176; numbered along this chain, O95718 (parent)
chain: KRLCLVCGDIASGYHYGVASCEACKAFFKRTIQGNIEYSCPATNECEITKRRRKSCQACRFMKCLKVGMLKEGVRLD

Variants of: B1
Test: abundance fitness (aPCA) (normalised: wild type 0, dead -1); higher = more abundant; growth selection in yeast, the domain comes from the species named
Settings: Homo sapiens

In order of rising abundance fitness:
1. KRLCLVCGDIASGYHYGVASCEAKKAFFKRTIQGNIEYSCPATNECEITKRRRKSCQACRFMKCLKVGMLKEGVRLD [C24K]  -1.07 ± 0.2
2. KRLCLVCGDIASGYHYGVASCEAGKAFFKRTIQGNIEYSCPATNECEITKRRRKSCQACRFMKCLKVGMLKEGVRLD [C24G]  -0.903 ± 0.069
3. KRLCLVCGDIASGYHYGVASCEAAKAFFKRTIQGNIEYSCPATNECEITKRRRKSCQACRFMKCLKVGMLKEGVRLD [C24A]  -0.897 ± 0.095
4. KRLCLVCGDIASGYHYGVASCEAMKAFFKRTIQGNIEYSCPATNECEITKRRRKSCQACRFMKCLKVGMLKEGVRLD [C24M]  -0.859 ± 0.11
5. KRLCLVCGDIASGYHYGVASCEICKAFFKRTIQGNIEYSCPATNECEITKRRRKSCQACRFMKCLKVGMLKEGVRLD [A23I]  -0.806 ± 0.41
6. KRLCLVCGDIASGYHYGVASCEALKAFFKRTIQGNIEYSCPATNECEITKRRRKSCQACRFMKCLKVGMLKEGVRLD [C24L]  -0.787 ± 0.071
7. KRLCLVCGDIASGYHYGVASCEAIKAFFKRTIQGNIEYSCPATNECEITKRRRKSCQACRFMKCLKVGMLKEGVRLD [C24I]  -0.707 ± 0.21
8. KRLCLVCGDIASGYHYGVASCENCKAFFKRTIQGNIEYSCPATNECEITKRRRKSCQACRFMKCLKVGMLKEGVRLD [A23N]  -0.658 ± 0.21
9. KRLCLVCGDIASGYHYGVASCEYCKAFFKRTIQGNIEYSCPATNECEITKRRRKSCQACRFMKCLKVGMLKEGVRLD [A23Y]  -0.56 ± 0.18
10. KRLCLVCGDIASGYHYGVASCEFCKAFFKRTIQGNIEYSCPATNECEITKRRRKSCQACRFMKCLKVGMLKEGVRLD [A23F]  -0.538 ± 0.24
11. KRLCLVCGDIASGYHYGVASCIACKAFFKRTIQGNIEYSCPATNECEITKRRRKSCQACRFMKCLKVGMLKEGVRLD [E22I]  -0.459 ± 0.12
12. KRLCLVCGDIASGYHYGVASCFACKAFFKRTIQGNIEYSCPATNECEITKRRRKSCQACRFMKCLKVGMLKEGVRLD [E22F]  -0.449 ± 0.12
13. KRLCLVCGDIASGYHYGVASCKACKAFFKRTIQGNIEYSCPATNECEITKRRRKSCQACRFMKCLKVGMLKEGVRLD [E22K]  -0.443 ± 0.091
14. KRLCLVCGDIASGYHYGVASCETCKAFFKRTIQGNIEYSCPATNECEITKRRRKSCQACRFMKCLKVGMLKEGVRLD [A23T]  -0.376 ± 0.091
15. KRLCLVCGDIASGYHYGVASCELCKAFFKRTIQGNIEYSCPATNECEITKRRRKSCQACRFMKCLKVGMLKEGVRLD [A23L]  -0.371 ± 0.057
16. KRLCLVCGDIASGYHYGVASCLACKAFFKRTIQGNIEYSCPATNECEITKRRRKSCQACRFMKCLKVGMLKEGVRLD [E22L]  -0.233 ± 0.046
17. KRLCLVCGDIASGYHYGVASCTACKAFFKRTIQGNIEYSCPATNECEITKRRRKSCQACRFMKCLKVGMLKEGVRLD [E22T]  -0.19 ± 0.061
18. KRLCLVCGDIASGYHYGVASCPACKAFFKRTIQGNIEYSCPATNECEITKRRRKSCQACRFMKCLKVGMLKEGVRLD [E22P]  -0.188 ± 0.071
19. KRLCLVCGDIASGYHYGVASCEHCKAFFKRTIQGNIEYSCPATNECEITKRRRKSCQACRFMKCLKVGMLKEGVRLD [A23H]  -0.16 ± 0.099
20. KRLCLVCGDIASGYHYGVASCSACKAFFKRTIQGNIEYSCPATNECEITKRRRKSCQACRFMKCLKVGMLKEGVRLD [E22S]  -0.154 ± 0.05
21. KRLCLVCGDIASGYHYGVASCYACKAFFKRTIQGNIEYSCPATNECEITKRRRKSCQACRFMKCLKVGMLKEGVRLD [E22Y]  -0.152 ± 0.076
22. KRLCLVCGDIASGYHYGVASCWACKAFFKRTIQGNIEYSCPATNECEITKRRRKSCQACRFMKCLKVGMLKEGVRLD [E22W]  -0.142 ± 0.053
23. KRLCLVCGDIASGYHYGVASCVACKAFFKRTIQGNIEYSCPATNECEITKRRRKSCQACRFMKCLKVGMLKEGVRLD [E22V]  -0.131 ± 0.048
24. KRLCLVCGDIASGYHYGVASCQACKAFFKRTIQGNIEYSCPATNECEITKRRRKSCQACRFMKCLKVGMLKEGVRLD [E22Q]  -0.092 ± 0.058
25. KRLCLVCGDIASGYHYGVASCHACKAFFKRTIQGNIEYSCPATNECEITKRRRKSCQACRFMKCLKVGMLKEGVRLD [E22H]  -0.091 ± 0.074
26. KRLCLVCGDIASGYHYGVASCEQCKAFFKRTIQGNIEYSCPATNECEITKRRRKSCQACRFMKCLKVGMLKEGVRLD [A23Q]  -0.039 ± 0.064
27. KRLCLVCGDIASGYHYGVASCEKCKAFFKRTIQGNIEYSCPATNECEITKRRRKSCQACRFMKCLKVGMLKEGVRLD [A23K]  -0.03 ± 0.059
28. KRLCLVCGDIASGYHYGVASCEVCKAFFKRTIQGNIEYSCPATNECEITKRRRKSCQACRFMKCLKVGMLKEGVRLD [A23V]  -0.014 ± 0.046
29. KRLCLVCGDIASGYHYGVASCEPCKAFFKRTIQGNIEYSCPATNECEITKRRRKSCQACRFMKCLKVGMLKEGVRLD [A23P]  0.023 ± 0.063
30. KRLCLVCGDIASGYHYGVASCEDCKAFFKRTIQGNIEYSCPATNECEITKRRRKSCQACRFMKCLKVGMLKEGVRLD [A23D]  0.049 ± 0.1
31. KRLCLVCGDIASGYHYGVASCECCKAFFKRTIQGNIEYSCPATNECEITKRRRKSCQACRFMKCLKVGMLKEGVRLD [A23C]  0.094 ± 0.067
32. KRLCLVCGDIASGYHYGVASCEECKAFFKRTIQGNIEYSCPATNECEITKRRRKSCQACRFMKCLKVGMLKEGVRLD [A23E]  0.094 ± 0.054
33. KRLCLVCGDIASGYHYGVASCERCKAFFKRTIQGNIEYSCPATNECEITKRRRKSCQACRFMKCLKVGMLKEGVRLD [A23R]  0.166 ± 0.037
34. KRLCLVCGDIASGYHYGVASCEADKAFFKRTIQGNIEYSCPATNECEITKRRRKSCQACRFMKCLKVGMLKEGVRLD [C24D]  0.265 ± 0.07
35. KRLCLVCGDIASGYHYGVASCEGCKAFFKRTIQGNIEYSCPATNECEITKRRRKSCQACRFMKCLKVGMLKEGVRLD [A23G]  0.321 ± 0.035
36. KRLCLVCGDIASGYHYGVASCNACKAFFKRTIQGNIEYSCPATNECEITKRRRKSCQACRFMKCLKVGMLKEGVRLD [E22N]  0.322 ± 0.068
